Measurements taken from PMC10144703, “Molecular Mechanism of Sirtuin 1 Inhibition by Human Immunodeficiency Virus 1 Tat Protein” (Life, 2023).
Where no end group is shown, it is not given here.

Target: human mini-Sirt1 (aa 183-505-(GGGS)2-641-665) (human) (UniProt Q96EB6)
Sequence (Q96EB6 other isoform, or with tags, fused parts or gaps): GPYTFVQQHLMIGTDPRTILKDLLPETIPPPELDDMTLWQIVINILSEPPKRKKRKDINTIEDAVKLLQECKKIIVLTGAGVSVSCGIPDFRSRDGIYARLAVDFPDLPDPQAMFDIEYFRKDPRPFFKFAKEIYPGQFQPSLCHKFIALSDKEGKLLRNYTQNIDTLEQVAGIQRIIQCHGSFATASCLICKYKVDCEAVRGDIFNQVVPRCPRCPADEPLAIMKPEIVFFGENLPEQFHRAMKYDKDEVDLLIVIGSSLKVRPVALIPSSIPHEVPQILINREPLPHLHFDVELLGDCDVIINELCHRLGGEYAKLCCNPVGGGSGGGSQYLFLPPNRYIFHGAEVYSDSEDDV

B1: Tat-46–54 (non-acetylated) (peptide)
peptide: SYGRKKRRQ
modifications: not fully specified
- inhibition of mini-Sirt1 in the FdL assay; IC50: 131 µM
